# Reference: patent US20230192837A1 (published 2023)
# Where a chain is given by its changes, count along the chain named.
# B1: Ab3 (antibody, human IgG1, kappa, V domains shown)
# VH: QVQLVQSGAEVKKPGASVKVSCKASGYTFTGYYMHWVRQAPGQGLEWMGWINPYTGGTKYAQKFQGRVTMTRDTSISTAYMELSRLRSDDTAVYYCARDLYGSSNYGMDVWGQGTTVTVSS
# VL: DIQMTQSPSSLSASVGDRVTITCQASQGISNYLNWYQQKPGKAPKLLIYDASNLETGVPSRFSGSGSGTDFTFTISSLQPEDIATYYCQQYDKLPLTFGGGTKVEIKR
# B2: Ab5 (antibody, human IgG1, kappa, V domains shown)
# VH: B1 VH
# VL: DIQMTQSPSSLSASVGDRVTITCQASQGIRNYLNWYQQKPGKAPKLLIYDASNLETGVPSRFSGSGSGTDFTFTISSLQPEDIATYYCQQYDKLPLTFGGGTKVEIKR
# B3: Ab4 (antibody, human IgG1, kappa, V domains shown)
# VH: B1 VH
# VL: not shown
# B4: Ab2 (antibody, human IgG1, kappa, V domains shown)
# VH: B1 VH with M34I, K59N
# VL: not shown
# B5: Ab1 (antibody, human IgG1, kappa, V domains shown)
# VH: B1 VH with M34I, K59N, M108G
# VL: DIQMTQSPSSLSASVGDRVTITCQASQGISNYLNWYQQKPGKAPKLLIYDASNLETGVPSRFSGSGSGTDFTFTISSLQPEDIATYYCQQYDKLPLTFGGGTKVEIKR
# notes: Human IgG1 with kappa light chain, expressed in CHO cells; also called exemplified anti-human TNFα antibody Ab1
# Biological target: T1, human TNFα (human, UniProt P01375 57-233, limits assumed)
# T1 sequence (P01375 57-233 limits assumed, form in doubt): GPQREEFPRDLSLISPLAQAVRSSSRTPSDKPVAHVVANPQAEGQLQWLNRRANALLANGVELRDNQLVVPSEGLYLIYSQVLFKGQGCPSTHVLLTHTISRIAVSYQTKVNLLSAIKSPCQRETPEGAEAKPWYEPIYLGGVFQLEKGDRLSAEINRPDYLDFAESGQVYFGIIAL
# Assay: cell-based or functional assay
row,Binder,IC50 of inhibition of soluble human TNFα induced cell killing of L929 cells
1,B1,0.19 µg/mL
2,B2,0.22 µg/mL
3,B3,0.19 µg/mL
4,B4,0.13 µg/mL
5,B5,0.16 µg/mL

# Biological target: cynomolgus monkey TNFα (cynomolgus monkey, UniProt P79337 57-233, limits assumed)
# Sequence (P79337 57-233 limits assumed, form in doubt): as the sequence (P01375 57-233 limits assumed, form in doubt) above, with R9K, L11P, L57V, R64T, T92N, R158L counted along it
# Assay: cell-based or functional assay
row,Binder,IC50 of inhibition of soluble cynomolgus monkey TNFα induced cell killing of L929 cells
1,B1,0.02 µg/mL
2,B2,0.03 µg/mL
3,B3,0.02 µg/mL
4,B4,0.02 µg/mL
5,B5,0.02 µg/mL

# Biological target: T1, human TNFα
# Assay: cell-based or functional assay
# Remark: another data set of the same source
"% Inhibition of human TNFα-induced plasma CXCL1 in C57/B6 mice, dose 0.3 mg/kg","% Inhibition of human TNFα-induced plasma CXCL1 in C57/B6 mice, dose 3 mg/kg",Binder
64.4%,86.6%,B1
49.8%,84.3%,B2
57.2%,92.6%,B3
46.5%,82.1%,B4
63%,83.9%,B5

# Biological target: T2, rhesus macaque TNFα (rhesus macaque, UniProt P48094 77-233)
# T2 construct: Bought (R&D Systems, Cat #1070-RM); also called rhesus macaque monkey TNFα
# T2 sequence (P48094 77-233 limits assumed): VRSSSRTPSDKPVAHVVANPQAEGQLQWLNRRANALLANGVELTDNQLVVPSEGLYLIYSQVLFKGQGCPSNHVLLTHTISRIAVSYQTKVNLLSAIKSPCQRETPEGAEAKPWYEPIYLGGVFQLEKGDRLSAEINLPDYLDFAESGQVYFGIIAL
# Assay: antigen-down ELISA, TNFα coated on plate, anti-human kappa-AP detection
# Method: Once the color developed (approximately 15-30 min), plates were read at 560 nm OD on a Molecular Device Spectramax plate reader and data was acquired using Softmax Pro 4.7 software. Data analysis was performed in GraphPad Prism.
row,EC50,Binder
1,0.155 µg/mL,B5

# Biological target: membrane human TNFα (non-cleavable TNFα) expressed on CHO cells (human, UniProt P01375 1-233)
# Assay: cell-based or functional assay
row,Binder,IC50 of inhibition of membrane TNFα-induced cell killing of L929 cells
1,B2,0.2 µg/mL
